Assay results as given in paper PMC7094404 (Archives of Biochemistry and Biophysics, 2008).

Molecular target: the molecule itself
Assay: AUC

B1: SARS-CoV main protease, full-length wild type, C-terminal His6 (enzyme)
chain: SGFRKMAFPSGKVEGCMVQVTCGTTTLNGLWLDDTVYCPRHVICTAEDMLNPNYEDLLIRKSNHSFLVQAGNVQLRVIGHSMQNCLLRLKVDTSNPKTPKYKFVRIQPGQTFSVLACYNGSPSGVYQCAMRPNHTIKGSFLNGSCGSVGFNIDYDCVSFCYMHHMELPTGVHAGTDLEGKFYGPFVDRQTAQAAGTDTTITLNVLAWLYAAVINGDRWFLNRFTTTLNDFNLVAMKYNYEPLTQDHVDILGPLSAQTGIAVLDMCAALKELLQNGMNGRTILGSTILEDEFTPFDVVRQCSGVTFQ
Question: How did the Kd turn out when B1 was run?
Answer: 80 ± 5 nM

Question: What about the koff of the same protein?
Answer: 0.01 ± 0.001 s⁻¹
